These results are taken from patent publication US20170173114A1, “METHODS AND COMPOSITIONS FOR INDUCTION OF UCP1 EXPRESSION” (Joslin Diabetes Center, Inc., priority 2014, published 2017).

In one assay the test system is preadipocytes. The experiment in a line: Transmission electron microscopy of mitochondria in preadipocytes. The class given is cell-based. To be noted: preadipocytes overexpressing FGF6 vs control. The procedure:
To determine if FGF6 treatment affects the overall health condition of mitochondria, mitochondrial attributes such as mitochondria biogenesis, mass, morphology and dynamics were measured. Mitochondrial mass was measured by a cell-permeable dye (MitoTracker Green FM) and by transmission electron microscopy (EM). MitoTracker Green FM accumulates in mitochondria in live cells irrespective of mitochondrial membrane potential. The intensity of fluorescence was visualized by microscopy and quantitated by flow cytometry. Mitochondrial morphology and ultra-structure (such as cristae and granules) was assessed by EM.

A further assay concerns UCP1 and PTGS2. Kind of assay: UCP1 and PTGS2 mRNA in WT-1 cells differentiated with BMP7. To be noted: 200 mg/mL FGF6 for 32 hours after 8 days BMP7; vs vehicle. Type of assay: cell-based, murine. The procedure: WT-1 preadipocyte cells were exposed to 3.3 nM BMP7 in growth media (DMEM-high glucose, 10% FBS, supplemented with 20 nM insulin and 1 nM triiodothyronine (T3)) for 8 days in order to induce differentiation of the adipocytes (Tseng Y. H. et al., (2008) Nature 454(7207):1000-1004). Following day 8 of treatment, the cells were exposed to […] of FGF6 protein, or vehicle control, in growth media for 32 hours. Cells were then collected, and UCP1 and PTGS2 mRNA expression levels were determined according to the quantitative RT-PCR assay described above.

Another assay has as its system mature brown adipocytes. The experiment in a line: Oxygen consumption rate in mature brown adipocytes (Seahorse). The class given is cell-based. To be noted: 24 hours; vs buffer. The procedure: To assess mitochondrial respiration, a Seahorse Extracellular Flux Analyzer (Seahorse Bioscience Inc., North Billerica, Mass.) was used to quantify oxygen consumption rates (OCR) of differentiated […] brown adipocytes. Wt-1 brown preadipocyte cells were seeded on 24-well format plates and allowed to adhere overnight. After adipogenic induction for 8 days, OCR was analyzed. To measure OCR […] oxidative phosphorylation, 0.5 μM oligomycin (EMD Chemicals Inc., Gibbstown, N.J.) was added to cells. Subsequently, 0.8 μM FCCP (carbonyl cyanide-p-trifluoromethoxyphenylhydrazone) and 1 μM respiratory chain inhibitors (rotenone) were added to measure maximal respiration and basal rates of nonmitochondrial respiration. As shown in FIGS. 23A and 23B, treatment of FGF6 enhanced oxygen consumption and glucose uptake in mature brown adipocytes. Thus, FGF6 was able to activate the mature brown adipocyte's ability to use glucose and increase energy expenditure without inducing UCP-1.

A further assay concerns UCP1. Kind of assay: UCP1 expression in immortalized human brown fat progenitors. The class given is cell-based. The procedure:
Primary stromal-vascular fraction (SVF) from human neck fat was isolated as described previously (Cannon and Nedergaard, Physiol Rev, 84: 277-359, 2004). Briefly, freshly resected superficial fat (pooled subcutaneous and subplatysmal) and fat located in the deeper neck regions (pooled carotid sheath, longus colli and prevertebral) were collected, minced and digested using collagenase 1 (2 mg/mL in PBS with the addition of 3.5% BSA; Worthington Biochemical Corporation, Lakewood, N.J.), and the SVF was isolated. SVF cells were plated and grown in high glucose Dulbecco's modified Eagle's medium (DMEM/H) supplemented with 10% (v/v) fetal bovine serum (FBS) and 1% penicillin/streptomycin. For adipocyte differentiation, cells were grown to confluent for 6 days (day 6) and then exposed to adipogenic induction mixture in DMEM/H medium containing isobutylmethylxanthine (0.5 mM), dexamethasone (0.1 μM), human insulin (0.5 μM; Roche Applied Science, Indianapolis, Ind.), T3 (2 nM), indomethacin (30 μM), pantothenate (17 μM), biotin (33 μM) and 2% FBS for another 12 days (referred as day 18). Induction medium was changed every 3 days until collected.
Primary SVF cells were immortalized with human telomere reverse transcriptase (hTERT) as described previously (Tchkonia, T., et al. Diabetes 55, 2571-2578, 2006). […]

The nature of assay [1]: Insulin tolerance test in Chow or high fat diet mice. Type of assay: in vivo, C57BL6 mice. To be noted: Chow or HFD mice, 0.5 mg/kg FGF6 s.c. and 1.5 U insulin per kg. As for the experimental part:
In addition to testing the impact of FGF6 on glucose tolerance, an insulin tolerance test was also performed using Chow fed and Obese (HFD) mice. Animals were fasted for two hours before receiving an intraperitoneal dose of 1.5 IU of recombinant human insulin (Humalog; Eli Lilly and Company, Indianapolis, Ind.). Blood samples were collected from the tail vein for measurement of blood glucose levels using a glucometer before and 15, 30, and 60 min after injections of FGF6 and the buffer control.

“Also recorded” adds a separate entry of the source.

B1: FGF6: fibroblast growth factor 6; recombinant human FGF from R&D Systems, or mouse FGF6 cDNA overexpressed by lentiviral vector (protein)
chain: KRQRRLYCNVGIGFHLQVLPDGRISGTHEENPYSLLEISTVERGVVSLFGVRSALFVAMNSKGRLYATPSFQEECKFRETLLPNNYNAYESDLYQGTYIALSKYGRVKRGSKVSPIMTVTHFLPRI
For B1, in the assay on preadipocytes, the “number of mitochondria by transmission electron microscopy” value is recorded as “fewer mitochondria” and the “shape of mitochondria by transmission electron microscopy” value is given as “longer shape”. In the assay with UCP1 and PTGS2, the “PTGS2 levels in cells differentiated using BMP7” value is on record as “increased” and the “UCP1 expression in cells differentiated using BMP7” value is listed as “induced UCP1 expression”. The “oxygen consumption in mature brown adipocytes” value in the assay with mature brown adipocytes is “enhanced”. For the same molecule, in the assay on UCP1, the “increase in UCP1 expression in human brown fat precursors” value is approximately 60 fold. Besides, in assay [1], the “glucose levels in insulin tolerance test (insulin sensitivity)” value is recorded as “lower levels of glucose; also recorded: enhanced insulin sensitivity”.
